Tested on: MS2 coat protein
Assay: apparent KD of MS2 coat protein; designed switch direction (-1 OFF switch, 1 ON switch): 1; higher = weaker reporter binding
In short: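 Designed RNA switches with common flanks were transcribed on Illumina chips by stalled E. coli RNA polymerase and titrated with SNAP-549-labelled MS2 coat protein, from 0.7 or 1.5 nM doubling to 3 µM, in Tris-HCl pH 7.5 buffer with KCl, MgCl2, BSA, DTT, tRNA and Tween-20. Steps lasted 0.8–1.5 h (lowest) to 10–20 min (highest). Titrations ran without input, with 200 uM small-molecule ligand, or with an oligonucleotide input. Normalised cluster fluorescence was curve-fitted, and apparent KD is the per-design median over clusters.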

[1] = input ligand: microRNA oligo, concentration not stated
[2] = Eterna round: R95, input ligand: FMN 200 uM
[3] = Eterna round: R95, input ligand: microRNA oligo, concentration not stated
[4] = Eterna round: R95, input ligand: none

Sequence | apparent KD of MS2 coat protein (input ligand: FMN 200 uM) | apparent KD of MS2 coat protein [1] | apparent KD of MS2 coat protein (input ligand: none) | apparent KD of MS2 coat protein [2] | apparent KD of MS2 coat protein [3] | apparent KD of MS2 coat protein [4]
GGAAACUUGAGAGGAUAUGUAGAGGAUCACCCUACAGAAGGCUCUUUUGAGAGGAUAUGUAGAGGAUCACCCUACAGAAGGCUC [pwkr ssNG DX.14] (Eterna round: R96, puzzle: Same State NG 1) | 30.7 nM | 26.5 nM | 87 nM | – | – | –
UCAAGCGUUUGGCUCGUCUUAUGUUUUGUACAUGAGGAUCACCCAUGUUUUGUACGAUCCAGUUAGAUGGUAUUUUG [JR_SHM208A_Sub038] (puzzle: Sensor for hsa-mir-208a) | – | – | – | 39.8 nM | 121 nM | 54.6 nM
GUGCUCGUGUGAGGAUAUGUUGCCGGGUCGGCUGCAGAAGGUACUAUUAUACAUGAGGAUCACCCAUGUCGCUUUUCUCCGGUG [salish99_SSNG1_r04_920] (Eterna round: R96, puzzle: Same State NG 1) | 98.3 nM | 58.8 nM | 65.8 nM | – | – | –
GUAAAACAUGAGGAUCACCCAUGUAAUAAUAUGGGAGGAUAUCAGAUUUAAUUUAAUUUAUGAGAAGGCCUAAAUU [Mat - Same State 1 - Mod of Eli - D62] (puzzle: Same State 1) | – | – | – | 43.4 nM | 488 nM | 596 nM
UUAAUAAUGAUAGGAUAUACAUGAGGAAUUCUCGUAGAAGGAUCAUGACAUGAGGAUCACCCAUGUAUCGCUCGAUAGAGCGUA [Mat - Same State NG 1 - JL mod - D35] (Eterna round: R96, puzzle: Same State NG 1) | 447 nM | 149 nM | 326 nM | – | – | –
GCCAACUAAUGAGGAUAUGGCACCUUAUUGGUGCCAGAAGGCAUGUCAAUUGACAUGAGGAUCACCCAUGUAUUAUAGUUGGCG [salish99_SSNG1_r04_601] (Eterna round: R96, puzzle: Same State NG 1) | – | 438 nM | – | – | – | –
GGCCUGUAGACAGGAUAUGGGAAAGGAAGUGUACCAGAAGGGUCAAAGAUAUAGGUGGACAUGAGGAUCACCCAUGUAAUUAAC [PowerStrip SSNG 1.21] (Eterna round: R96, puzzle: Same State NG 1) | 56.6 nM | 70.5 nM | 105 nM | – | – | –
AAAGGAUGAUGUUACAUGAGGAUCACCCAUGUUGUGAUAACUAAGGAUAUGUGUUAAACCAGUUAAUAGAAGGUAGGAUCAUAA [AK SSNG3-V2-5] (Eterna round: R96, puzzle: Same State NG 3) | 182 nM | 77.1 nM | 112 nM | – | – | –
CCGAGUGGCGUACAGGAUAUGUUGCAUGGAACAUGAGGAUCACCCAUGUAUUUGCUCCCGCAUACGCAGAAGGGUGCGUCCUGGG [Arraquorso] (Eterna round: R96, puzzle: Same State 2) | 25 nM | 31.4 nM | 46.9 nM | – | – | –
GGUCCAGCCUGAGCUGGACAAAAGCAUGUACAUGAGGAUCACCCAUGUUCAUGUACAAGCUUUUUGCUCGUCUUACC [salish99_208a_r3_090x] (puzzle: Sensor for hsa-mir-208a) | – | – | – | 570 nM | 15.9 nM | 823 nM
UGAAUAGUGAUAGGAUAUACAUGAGGAAUCCUCGUAGAAGGAUCAUAACAUGAGGAUCACCCAUGUAGCGCUCAGAAGAGCGCA [Mat - Same State NG 1 - JL mod - D54] (Eterna round: R96, puzzle: Same State NG 1) | 31.5 nM | 37.1 nM | 81.3 nM | – | – | –
GAGAGGAUAUGGAGAGGAUCACCCUCUAGAAGGCUCGAAGGAGAGGAUAUGGAGAGGAUCACCCUCUAGAAGGCUCACUUCUCU [pwkr ssNG3 DX 2xF5 +2xFMN.6] (Eterna round: R96, puzzle: Same State NG 3) | 256 nM | 105 nM | 156 nM | – | – | –
AGCUAUCGAAAACGAUAGCAAAAGCGUGUACAUGAGGAUCACCCAUGUCAUGUACAAGCUUUUUGCUCGUCUUAAAA [Zipper 23 - 6] (puzzle: Sensor for hsa-mir-208a) | – | – | – | 34 nM | 14.4 nM | 41.8 nM
AACAAUCUAUCUGAGGAUAUCAUGAGAAGAACAUGAGGAUCACCCAUGUGCAGGAAAACUGCAUAUGAGAAGGCAGAUAGAUUGG [Mat - Same State 2 - Mod - D18] (puzzle: Same State 2) | – | – | – | 52.8 nM | 621 nM | 1950 nM
GUGGUCAGACAUGAGGAUCACCCAUGUGGAAUAAAUAACAGACAGGAUAUCCAAUAUAGGAUAUAGGAGAAGGGUCGAUUGGUG (Eterna round: R96, puzzle: Same State NG 3) | – | 56.9 nM | – | – | – | –
AGUCCAGCCUGAGCUGGACAAAAGCAUGUACAUGAGGAUCACCCAUGUUCAUGUACAAGCUUUUUGCUCGUCUUAGG [salish99_208a_r3_062] (puzzle: Sensor for hsa-mir-208a) | – | – | – | 375 nM | 21.8 nM | 686 nM

Sequence | apparent KD of MS2 coat protein (input ligand: FMN 200 uM) | apparent KD of MS2 coat protein [1] | apparent KD of MS2 coat protein (input ligand: none) | apparent KD of MS2 coat protein [2] | apparent KD of MS2 coat protein [3] | apparent KD of MS2 coat protein [4]
UAUGACUUACAAGGAUAUUAAUAACAUGAGGAUCACCCAUGUGGCUGUGAGAGUUAGAUAAGCUAUAAGAAGGUGUGUGUGUUU [JR_SSNG2_Sub094] (Eterna round: R96, puzzle: Same State NG 2) | 62.7 nM | 133 nM | 173 nM | – | – | –
AGUCCAGCCUGAGCUGGACAAAAGCAUGUACAUGAGGAUCACCCAUGUCAUGUACAAGCUUUUUGUUCGUCUUAAUA [Zipper 49 - 13] (puzzle: Sensor for hsa-mir-208a) | – | – | – | 258 nM | 14.6 nM | 350 nM
CUUUAUCACUAUACAUGAGGAUCACCCAUGUUAUCAUCAUGAGAGGAUAUCGUAUUUGGAUUUUUCGAGAAGGCUCUUUUGUAU [JR_SSNG3_Sub076] (Eterna round: R96, puzzle: Same State NG 3) | – | 90.4 nM | – | – | – | –
ACGCAGCUGGGUGAGGAUAUCGGUGGUAAAACAUGAGGAUCACCCAUGUCCGAAGCUCGGACUUCCGAGAAGGCGCCCAACUGCA [Ercelama] (puzzle: Same State 2) | – | – | – | 12.9 nM | 55.1 nM | 70.9 nM
GGUCCAGCCUGAGCUGGACAAAAGCAUGUACAUGAGGAUCACCCAUGUUCAUGUACAAGCUUUUUGCUCGUCUUACG [salish99_208a_r3_086] (puzzle: Sensor for hsa-mir-208a) | – | – | – | 571 nM | 19.2 nM | 844 nM
GUGGUCAGACAUGAGGAUCACCCAUGUGGAAUAAAUAAGGAAUAGGAUAUGGAAUAUAGGAUAUACCAGAAGGGUUGGUUGGUG (Eterna round: R96, puzzle: Same State NG 3) | – | 73.4 nM | – | – | – | –
AAUCGUUUGAUAGGAUAUCGUUAUACAUGAGGAUCACCCAUGUUUACCACGCUGGUUUUUCGUACCGAGAAGGAUUCUGAUGAU [JL JR sub007 mod 6] (Eterna round: R96, puzzle: Same State NG 2) | 30.5 nM | 20.2 nM | 27.5 nM | – | – | –
ACCCAAAGUAUAUGGGAGCAAGCUUUUUAACAUGAGGAUCACCCAUGUACUCGUCUUAUAAGCAGUCGAAAGACUGC [Sensor 100 - 4] (puzzle: Sensor for hsa-mir-208a) | – | – | – | 612 nM | 12.4 nM | 814 nM
AGCGAAAGCAGUCACAUGAGGAUCACCCAUGUAUUAACUAUUGAGGAUAUGCAGCGACGGGUGUAGCAGAAGGCAGUGAGAAGG [Eternabot solution 30] (Eterna round: R96, puzzle: Same State NG 3) | 54.4 nM | 52.1 nM | 61.1 nM | – | – | –
GCUAGAAUUAAAGCCAACAUGAGGAUCACCCAUGUAUGUUGGCAGGAUAUCGUUUGCUUUGCAAACGAGAAGGGCCAAACUAGC [JL SSNG3 1.01] (Eterna round: R96, puzzle: Same State NG 3) | 20.6 nM | 76.1 nM | 120 nM | – | – | –
GCAGGACGAUAAUAUAUCUUCACAUGAGGAUCACCCAUGUCUCAGGAUAUGGAUCCUAAUUGGAUCCAGAAGGGAGCGUCCUGC [Fiskers NG3ss - 33] (Eterna round: R96, puzzle: Same State NG 3) | 33.2 nM | 43.3 nM | 54.4 nM | – | – | –
UGAGCCGGCACUGAGGAUAUUCAUAAUAAAACAUGAGGAUCACCCAUGUAGGCCAGAAGGCCUUGGGAGAAGGCAGGUCGGCUCA [Mat - Same State 2 - Mod of UCT - D71] (puzzle: Same State 2) | – | – | – | 16.7 nM | 134 nM | 247 nM
UAGUGCAUUAGAGGAUAUUCUUACGACACGAGUAAGACAUGAGGAUCACCCAUGUCGUGGCAUGGGAAGAAGGCUGAUGUGCUA [Omei SS(NG)2 Bv7] (Eterna round: R96, puzzle: Same State NG 2) | 14.4 nM | 11.1 nM | 34.7 nM | – | – | –
GUGCUCGUGUGAGGAUAUGCUUCCGUUUCGGCUGCAGAAGGUACUAUUAUACAUGAGGAUCACCCAUGUCUCUUUUGUUUGGUG [salish99_SSNG1_r04_910] (Eterna round: R96, puzzle: Same State NG 1) | 95 nM | 51.9 nM | 67.8 nM | – | – | –
AGCUAUUAAUCAGGAUAUAGGGACAUGAGGAUCACCCAUGUAUACAUGAUGAAAUGUGAUCACGUCUAGAAGGGAUUACUAACA [SameState NG2 #40] (Eterna round: R96, puzzle: Same State NG 2) | 236 nM | 299 nM | 134 nM | – | – | –

Source: the supplement of paper PMC9170038
